According to patent US20230380451A1, “MEANS AND METHODS TO DETOXIFY MYCOTOXINS” (priority 2020, published 2023):

B1: ADH-Lk: artificial amino acid sequence, variant of a wild type alcohol dehydrogenase (protein)
chain: MTDRLKGKVAIVTGGTHGIGLAIATKFVTEGAKVVITGRRADVGEKAAKSIGGTDVIRFVQHDVSDEAGWGKLFDTTEETFGPVTTLVNNAGIGYRKSVEDTTTEEWRKLLSVNLDGVFFGTRLGIQRMKCKGLGASIINMSSILGQVGDPATGAYSASKGAVRIMSKSAALLCALKDYDVRVNTVHPGPIKTPLMDDMPGAEEMMSQRTKTPMGHIGEPNDIAWVCVYLASDESKFATGAEFVVDGGYTAQ
modifications: ADH-Lk

How the values were obtained:
[1] = system: translation of firefly luciferase; assay type: biochemical
Experimental: To determine whether or not the conversion of DON into epi-THS through Akr I-III and the conversion of DON into THS through ADH-Lk, as described herein, leads to a decrease in toxicity, two assays were performed. The in vitro TNT® Quick Coupled Transcription/Translation System (Promega) was used to measure how well the metabolites inhibit protein synthesis and the CeIITox™ Green Cytotoxicity Assay (Promega; […].
For the in vitro transcription/translation assay, 40 μl of the TNT T7 quick master mix were mixed with 2 μl firefly luciferase encoding DNA and with 4 μl metabolites to obtain final concentrations from 0.01 μM-150 μM in the reaction. Reactions lacking metabolites were the reference for maximum luminescence output. Reactions were incubated at 30° C. for 90 min to allow for transcription of luciferase gene and subsequent translation. In an opaque (white) 96-well plate (Greiner Bio One) 100 μl Luciferase reagent where mixed with 4 μl of the reactions and immediately placed into a Synergy HT plate reader (Biotek) to read luminescence with a 2 sec and a 10 sec measurement delay. […].

[2] = DON transformation assay with ADH-Lk; assay type: biochemical; settings: for DON / THS [peak area]: 30° C.
Experimental: . All components of the reaction except of isopropanol and NADP+ were mixed on ice and a 0 minutes sample was removed (mix sample 1:1 (v/v) with 100% methanol to stop any reaction). Immediately thereafter, reaction mixtures were transferred to the heating block and the reaction was started by adding NADP+ and IPA. The reaction was allowed to proceed for 22 hours at 30° C. A control reaction with the same set up, but lacking the enzyme was set up in parallel. Samples were removed in regular intervals in order to monitor the progression of the reaction and immediately mixed 1:1 (v/v) with 100% methanol to stop the reaction. They were subsequently analyzed using the HPLC-MS/MS method described in below.
For HPLC-MS/MS analysis, DON and THS were separated on a 150 mm×2.1 mm Phenomenex Kinetex Biphenyl column with a particle size of 2.6 μm. The mobile phase consisted of a mixture of methanol and ultrapure water with 0.1% (v/v) acetic acid. Ions were generated using electro spray ionization (ESI) in negative ionization mode. The quantification is done using a QTrap and/or triple quadrupole mass detector. […].

Molecule	times weaker effect on luminescence output compared to DON [1]	DON ([2]; time 0 h) [µg/L]	DON ([2]; time 3.5 h) [µg/L]	THS [peak area] ([2]; time 3.5 h)	DON ([2]; time 22 h) [µg/L]	THS [peak area] ([2]; time 22 h)	production of THS from DON ([2]; presence of enzyme in the reaction)
8-amino-DON [Akr 8-amino-DON]	5-10 times						
B1		399.9	387.1	7.88E+03	296.6	1.13E+05	leads to the production of THS from DON
